Data taken from article PMC8957996.
Blank lines part the entries; values can stand above or below the substance they belong to.

How the values were obtained:
[Ala^1]gA [1] = single-channel electrophysiology (planar lipid bilayer); DOPC/n-decane bilayer, AgA(15) and gA^-(13) together, 1 M NaCl, pH 7, 200 mV, 500 Hz; 25 ± 1 °C
[Ala^1]gA [2] = single-channel electrophysiology (planar lipid bilayer); DLoPC/n-decane bilayer (25 uM butylated hydroxytoluene in the bilayer-forming solution), AgA(15) and gA^-(13) together, 1 M NaCl, pH 7 (10 mM HEPES), 200 mV, 500 Hz; 25 ± 1 °C
[Ala^1]gA [3] = single-channel electrophysiology (planar lipid bilayer); DoPC (ether phospholipid)/n-decane bilayer, AgA(15) and gA^-(13) together, 1 M NaCl, pH 7 (10 mM HEPES), 200 mV, 500 Hz; 25 ± 1 °C
[Val^1]gA [4] = single-channel electrophysiology (planar lipid bilayer); DOPE:DOPC (3:1)/n-decane bilayer, 1.0 M NaCl, unbuffered (pH 6-7); bilayer punch method, 25 ± 1 °C, 200 mV, 100 Hz
[Val^1]gA [5] = single-channel electrophysiology (planar lipid bilayer); DOPE:DOPC (4:1)/n-decane bilayer, 0.1 M Na+, pH 1; bilayer punch method, 25 ± 1 °C, ±200 mV
[Val^1]gA [6] = single-channel electrophysiology (planar lipid bilayer); DOPS/n-decane bilayer, 0.1 M Na+, pH 4 (Gly-Gly); bilayer punch method, 25 ± 1 °C, ±200 mV
[Val^1]gA [7] = single-channel electrophysiology (planar lipid bilayer); DOPS/n-decane bilayer, 0.1 M Na+, pH 8 (Na2HPO4); bilayer punch method, 25 ± 1 °C, ±200 mV; monomers in opposing monolayers dimerise to the conducting channel
[Val^1]gA [8] = single-channel electrophysiology (planar lipid bilayer); DOPS/n-decane bilayer, 0.1 M Na+, pH 5 (Gly-Gly); bilayer punch method, 25 ± 1 °C, ±200 mV
[Val^1]gA [9] = single-channel electrophysiology (planar lipid bilayer); DOPE:DOPC (4:1)/n-decane bilayer, 0.1 M Na+, pH 3 (Gly-Gly); bilayer punch method, 25 ± 1 °C, ±200 mV
[Val^1]gA [10] = single-channel electrophysiology (planar lipid bilayer); DOPS/n-decane bilayer, 0.1 M Na+, pH 6 (Na2HPO4); bilayer punch method, 25 ± 1 °C, ±200 mV
[Val^1]gA [11] = single-channel electrophysiology (planar lipid bilayer); DOPE:DOPC (4:1)/n-decane bilayer, 0.1 M Na+, pH 0; bilayer punch method, 25 ± 1 °C, ±200 mV
[Val^1]gA [12] = single-channel electrophysiology (planar lipid bilayer); DOPS/n-decane bilayer, 0.1 M Na+, pH 7 (Na2HPO4); bilayer punch method, 25 ± 1 °C, ±200 mV
[Val^1]gA [13] = single-channel electrophysiology (planar lipid bilayer); DOPE:DOPC (1:1)/n-decane bilayer, 1.0 M NaCl, unbuffered (pH 6-7); bilayer punch method, 25 ± 1 °C, 200 mV, 100 Hz
[Val^1]gA [14] = single-channel electrophysiology (planar lipid bilayer); DOPE:DOPC (4:1)/n-decane bilayer, 0.1 M Na+, pH 9 (Na2HPO4); bilayer punch method, 25 ± 1 °C, ±200 mV
[Val^1]gA [15] = single-channel electrophysiology (planar lipid bilayer); DOPE:DOPC (4:1)/n-decane bilayer, 0.1 M Na+, pH 5 (Gly-Gly); bilayer punch method, 25 ± 1 °C, ±200 mV
[Val^1]gA [16] = single-channel electrophysiology (planar lipid bilayer); DOPC/n-decane bilayer, 1.0 M NaCl, unbuffered (pH 6-7); bilayer punch method, 25 ± 1 °C, 200 mV, 100 Hz
[Val^1]gA [17] = single-channel electrophysiology (planar lipid bilayer); DOPS/n-decane bilayer, 0.1 M Na+, pH 7 (HEPES); bilayer punch method, 25 ± 1 °C, ±200 mV
[Val^1]gA [18] = single-channel electrophysiology (planar lipid bilayer); DOPE:DOPC (1:3)/n-decane bilayer, 1.0 M NaCl, unbuffered (pH 6-7); bilayer punch method, 25 ± 1 °C, 200 mV, 100 Hz
[Val^1]gA [19] = single-channel electrophysiology (planar lipid bilayer); DOPS/n-decane bilayer, 0.1 M Na+, pH 3 (Gly-Gly); bilayer punch method, 25 ± 1 °C, ±200 mV
[Val^1]gA [20] = single-channel electrophysiology (planar lipid bilayer); DOPS:DOPC (1:2)/n-decane bilayer, 0.1 M Na+, pH 7 (HEPES); bilayer punch method, 25 ± 1 °C, ±200 mV
[Val^1]gA [21] = single-channel electrophysiology (planar lipid bilayer); DOPE:DOPC (4:1)/n-decane bilayer, 0.1 M Na+, pH 7.8 (Na2HPO4); bilayer punch method, 25 ± 1 °C, ±200 mV
[Val^1]gA [22] = single-channel electrophysiology (planar lipid bilayer); DOPS:DOPE (1:2)/n-decane bilayer, 0.1 M Na+, pH 7 (HEPES); bilayer punch method, 25 ± 1 °C, ±200 mV
des-(Val^1-Gly^2)gA^– [23] = assay: single-channel electrophysiology (planar lipid bilayer); DOPC/n-decane bilayer, AgA(15) and gA^-(13) together, 1 M NaCl, pH 7, 200 mV, 500 Hz; 25 ± 1 °C
des-(Val^1-Gly^2)gA^– [24] = assay: single-channel electrophysiology (planar lipid bilayer); DLoPC/n-decane bilayer (25 uM butylated hydroxytoluene in the bilayer-forming solution), AgA(15) and gA^-(13) together, 1 M NaCl, pH 7 (10 mM HEPES), 200 mV, 500 Hz; 25 ± 1 °C
des-(Val^1-Gly^2)gA^– [25] = assay: single-channel electrophysiology (planar lipid bilayer); DoPC (ether phospholipid)/n-decane bilayer, AgA(15) and gA^-(13) together, 1 M NaCl, pH 7 (10 mM HEPES), 200 mV, 500 Hz; 25 ± 1 °C

channel lifetime tau (= 1/k-1, dissociation of the dimer) ([Ala^1]gA [1]): 170 ms
channel lifetime tau (= 1/k-1, dissociation of the dimer) ([Ala^1]gA [2]): 823 ms
channel lifetime tau (= 1/k-1, dissociation of the dimer) ([Ala^1]gA [3]): 296 ms
Substance: [Ala^1]gA (peptide)

channel lifetime tau (= 1/k-1, dissociation of the dimer) ([Val^1]gA [4]): 260 ms
fold decrease of k1 (association rate constant) against DOPC bilayers ([Val^1]gA [4]): 10 fold
fold decrease of the dimerization constant KD (= k1·τ) against DOPC bilayers ([Val^1]gA [4]): 20 fold
channel lifetime tau (= 1/k-1, dissociation of the dimer) ([Val^1]gA [5]): 90 ms
channel lifetime tau (= 1/k-1, dissociation of the dimer) ([Val^1]gA [6]): 270 ms
channel lifetime tau (= 1/k-1, dissociation of the dimer) ([Val^1]gA [7]): 1380 ms
channel lifetime tau (= 1/k-1, dissociation of the dimer) ([Val^1]gA [8]): 800 ms
channel lifetime tau (= 1/k-1, dissociation of the dimer) ([Val^1]gA [9]): 70 ms
channel lifetime tau (= 1/k-1, dissociation of the dimer) ([Val^1]gA [10]): 920 ms
channel lifetime tau (= 1/k-1, dissociation of the dimer) ([Val^1]gA [11]): 220 ms
channel lifetime tau (single experiment) ([Val^1]gA [11]): 235 ms
channel lifetime tau (= 1/k-1, dissociation of the dimer) ([Val^1]gA [12]): 1320 ms
channel lifetime tau (= 1/k-1, dissociation of the dimer) ([Val^1]gA [13]): 240 ms
channel lifetime tau (single experiment) ([Val^1]gA [13]): 229 ms
channel lifetime tau (= 1/k-1, dissociation of the dimer) ([Val^1]gA [14]): 150 ms
channel lifetime tau (single experiment) ([Val^1]gA [14]): 162 ms
channel lifetime tau (= 1/k-1, dissociation of the dimer) ([Val^1]gA [15]): 80 ms
channel lifetime tau (single experiment) ([Val^1]gA [15]): 65 ms
channel lifetime tau (= 1/k-1, dissociation of the dimer) ([Val^1]gA [16]): 550 ms
channel lifetime tau (single experiment) ([Val^1]gA [16]): 563 ms
channel lifetime tau (= 1/k-1, dissociation of the dimer) ([Val^1]gA [17]): 1340 ms
channel lifetime tau (= 1/k-1, dissociation of the dimer) ([Val^1]gA [18]): 350 ms
channel lifetime tau (single experiment) ([Val^1]gA [18]): 304 ms
channel lifetime tau (= 1/k-1, dissociation of the dimer) ([Val^1]gA [19]): 170 ms
fold decrease of k1 (association rate constant) against pH 7 ([Val^1]gA [19]): 100 to 400 fold
fold decrease of the dimerization constant KD (= k1·τ) against pH 7 ([Val^1]gA [19]): 1000 fold
channel lifetime tau (= 1/k-1, dissociation of the dimer) ([Val^1]gA [20]): 470 ms
channel lifetime tau (single experiment) ([Val^1]gA [20]): 486 ms
channel lifetime tau (= 1/k-1, dissociation of the dimer) ([Val^1]gA [21]): 100 ms
channel lifetime tau (= 1/k-1, dissociation of the dimer) ([Val^1]gA [22]): 140 ms
channel lifetime tau (single experiment) ([Val^1]gA [22]): 143 ms
Substance: [Val^1]gA (peptide)

channel lifetime tau (= 1/k-1, dissociation of the dimer) (des-(Val^1-Gly^2)gA^– [23]): 13.8 ms
channel lifetime tau (= 1/k-1, dissociation of the dimer) (des-(Val^1-Gly^2)gA^– [24]): 61 ms
channel lifetime tau (= 1/k-1, dissociation of the dimer) (des-(Val^1-Gly^2)gA^– [25]): 29 ms
Substance: des-(Val^1-Gly^2)gA^– (peptide)
